The nanobody polyreactivity screen of Harvey et al. (2022)

test: yeast display, Sf9 membrane polyspecificity reagent, FACS + sequencing; frameworks hold sequencing errors
How it was run: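 After 36–48 hours of galactose induction, yeast (Saccharomyces cerevisiae BJ5465) displaying a synthetic nanobody library were stained at 4 °C for 1 hour with 10% biotinylated, detergent-solubilized Sf9 membrane reagent. Streptavidin microbeads enriched the stained cells before FACS sorting into low and high (top ~1%) gates on anti-HA and streptavidin fluorescence. Each clone's polyreactivity label reflects its gate of origin.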

Q: Which “polyreactivity (PSR sort gate)” value does the source give for “QVQLVESWGGLVQEGRSLRLSCAASGYTFQRYNIRWYRPAPGKERELVAAINWSGGSTYYADSVKGRFTISRDNAMNTVYLQMIWLKPEDTAVYYFSRRYRDYGGYGYWGQGTQVSVSS” here?
A: The value was “high polyreactivity”.

Q: For “QVQLQESGGGLVQAGGSLLSCAASGTISYYREMGWSRQSPGKQRELVAGIGVGTITYYADSVKGRFTISRDNAKKTVFLQMNSLNPEDTAVYYCAAHIDGNDSHAYWGQGTQVTVSS”, which “polyreactivity (PSR sort gate)” value is on record?
A: The value was “low polyreactivity”.

Q: Which “polyreactivity (PSR sort gate)” value does the source give for “QVQLVESGGGLVQAGGSLRFSCSASGSIFNYYTMGWYRQAPGKERELVAVITSGGSTYYADSVKGRFTISRDNAKNTVYLQMNSLKPEDTAVYYCAAKRRSYLKQGYSVGYWGQGSQVTVSS” here?
A: Its value is “high polyreactivity”.

Q: For “QVQLVESGGGLVQAGGSLRLSCAASGRTFGYYAMGWSRQAPGKERELVAAITYSGGRTRYADSVKGRFTISRDNAKNTVYLQMNSLKPEDTAVYYCNRVIPTQSLRDYYWGQGTQVTVSS”, which “polyreactivity (PSR sort gate)” value is on record?
A: The value was “high polyreactivity”.

Q: With “QFQLVESGGGVVQAGGRLRLSCAASGSNFPRYAMGWYIQAPGKERELVAAISSSGGDTYYADSVKGLYTISRDNAKNTVYLQMNSLKPEDTAVYYCAALGAFPSLEFDYCGQGTQVTVSS” as the sequence, how does the “polyreactivity (PSR sort gate)” value read?
A: The value was “low polyreactivity”.

Q: For “QVQLVESGGGLVQAGGSLRLSCAASGIIIYNYTMGWYRQAPGKERELVAAISRSGGRTYYADSVKGRFTISRDNAKNNVYLQMNSLKPEDTAVYYCAAAGYYHTYWGTMDFWGQGTQVTVSS”, which “polyreactivity (PSR sort gate)” value is on record?
A: Its value is “high polyreactivity”.

Q: Which “polyreactivity (PSR sort gate)” value does the source give for “QVQLVESGGGLVQAGGSLRIRCAASGSTFKTYTMGWYRQAPGKERELVAGITSGGSTSYADSVKGRFTISRDNAKNTVYLQMNSLKPEVTAVYYCAAAEGGGLVTYDYCGQGTQVTVSS” here?
A: Its value is “low polyreactivity”.

Q: Which “polyreactivity (PSR sort gate)” value does the source give for “QVQLVESGGGLVQAGGSLRLSCAASGFIFPYYDMGWYRQAPGKERELVADIDSSGGTTYYADSVKGRFTISRDNAKNTVYLQMNSLKPEDTAVYYCAATYQAWTWYPYYVIYDYWGQGTQVTVSS” here?
A: Its value is “high polyreactivity”.

Q: With “QVQLVESGGGLVQAGGSLRLSCAASGNIFKVYVMGGSRQAPGKERELVAAISGSGGSTYYADSVKGRFTISRDNAKTTVYLQMNSLKPEDTSVYYCNKVFKVTAARSFGYWGQGTQVTVSS” as the sequence, how does the “polyreactivity (PSR sort gate)” value read?
A: Its value is “low polyreactivity”.

Q: For “QVQLVESGGGLVQAGASLRLSCAASGSILVDNAMGSYRQAPWKERELVARITGSGGSTYYADSVKGRCTISRDNAKNTVYLQMNSLKPEDTAVYYCAARRVNAGWTYGLRGNYWGQGSQVTVSS”, which “polyreactivity (PSR sort gate)” value is on record?
A: Its value is “low polyreactivity”.

Q: With “QVQLVESGGGLVQAGGILRLSCAASGRTFGWNAMGWYRQAPGKERELVAAISWSGTNTYYADSVKGRFTISRDNAKNTVYLQMNCLNPEDTAVYYCAARDWTGSWNGYWYWEYNYWGQGTQVTVSS” as the sequence, how does the “polyreactivity (PSR sort gate)” value read?
A: The value was “low polyreactivity”.

Q: For “QVQLVESGGGLVQAGGSLRLSCAASGFTFSYNAMGWSRQAPGKERELVAAISSAGSTYYADSVKGRFTISRDNAKNTVYLQMNSLKPEDTAVYYCNAYRRSYRWYGDLGEYWGQGTQVTVSS”, which “polyreactivity (PSR sort gate)” value is on record?
A: Its value is “high polyreactivity”.

Q: Which “polyreactivity (PSR sort gate)” value does the source give for “QVQLVESGGGLVQAGGSHRLSCAASGRIFNWYAMGWYRHAPGKDRALVARISSGDITSYADSVKGRFSISRDNAKNTVYLQMNILKPEDTAVYYCAARQWFLYDYWGQGTQVTVSS” here?
A: The value was “low polyreactivity”.

Q: With “QVQLVESGVGLVQAGGSLRLRCAASGSIFEGNGMGWYRQAPGKERELVASITRSGGSTYDADSVKGRFTISRDNAQNTVYVQMNSLKPEDTAVYYCAAKGTTYGLTIRWYPYLHGYNYWGQGTQVTVSS” as the sequence, how does the “polyreactivity (PSR sort gate)” value read?
A: Its value is “low polyreactivity”.

Q: With “QVQLVESGGGLVQAGGSLRLSCAASGFISSENAMGWYRQAPGKERELVAAISSGGSTNYADSVKGRFTISRDNAKNTVYLQMNSIKREDTAVYYCAATLPGWYNEDDSWGQGTQVTVSS” as the sequence, how does the “polyreactivity (PSR sort gate)” value read?
A: The value was “low polyreactivity”.

Q: With “QVQLVESGGGLVQAGGSLRLSCASSGSKLGINVMGWYRQAPGKERELVAAISRRGGSTNYADSVKGRFTISRDNAKNTVYLQMNSLKPEDTAVYYCNALGHVQGYDYWGQGTQVTVSS” as the sequence, how does the “polyreactivity (PSR sort gate)” value read?
A: Its value is “high polyreactivity”.

Q: Which “polyreactivity (PSR sort gate)” value does the source give for “QVQLVESGGGLVQAGGSLRLSCAASGSIFSRYAMGWYRQAPGKERELVAAISGRGGGTYYADSVKGRFTISRDNAKNTVYLQKNSMKPEDTAVYYCAAQLGRPAYSRVSWRAYYYWGQGTQVTVSS” here?
A: Its value is “low polyreactivity”.

Q: With “QVQLVESGGGLVQAGGSLRLSCAASGIIFGKYAMGWYRQAPGKERELVASITVDGGTTYYADSVKGRFTISRDNAKNTVYLQMNSLKPEDTAVYYCATGVFAEQWFDYWPYDYWGQGTQVTVSS” as the sequence, how does the “polyreactivity (PSR sort gate)” value read?
A: The value was “high polyreactivity”.

Q: Which “polyreactivity (PSR sort gate)” value does the source give for “QVQLVESGGGLVQAGGSLRLSCAASGSTFYYYAMGWYRQAPGKERELVAAITYSGGGTYYADSVKGRFTISRDNAKNTVYLQMNSLKPEDTAVYYCAKTIAVNTWYYYWGQGTQVTVSS” here?
A: Its value is “low polyreactivity”.

Q: Which “polyreactivity (PSR sort gate)” value does the source give for “QVQLVESGGGLVQAGGSLRLSCAASGSIFSYYAMGWYRQAPGKERELVATISVSGGNTYYADSVKGRFTISRDYAKNTVYLQMNSLKPEDTAVYYCAKYNWYRAWRYGYWGQGTQVTVSS” here?
A: The value was “high polyreactivity”.

Q: For “QVQLVETGGGLVQAGGSLRLSGAASGRIFWVNAMGWYRQAPGKERELVAVISRGGSTTYADSVKGRFTISRDNAKNTVYLKMNSLKPEDTAVYYCAADAYRHAFLYYGYDYLGQGTQVTVSS”, which “polyreactivity (PSR sort gate)” value is on record?
A: Its value is “low polyreactivity”.

Q: For “QVQLVESGGGLVQAGGSLRLSCAASGFTFTRYTMGWYRQAPGKERELVAAITSGGRTNYADSVKGRFTISRDNAKNTVYLQMNSLKPEDTAVYYCAARYVYYWAYGNEYWGHGTQVTVSS”, which “polyreactivity (PSR sort gate)” value is on record?
A: The value was “high polyreactivity”.

Q: For “QVQLVESGGGLVQAGGSLRLSCAASGSTFYINAMRWYRPAPGKERELVAAISWSGGSTYYADSVKGRFTISRDNAKNTVYLQMNSLKPEDTAVYYCAADWYLGWSLDYDYWGQGTQVTVSS”, which “polyreactivity (PSR sort gate)” value is on record?
A: The value was “low polyreactivity”.

Q: With “HVQLVESGGGLVQAGGSLRLSCAASGSTFGGNAMGWYRQAPGKERELVAAISKSGGRTFYADSVKGRFTISRDNAKNTVYLQMISLKPEDTAVYYCAAQYRGYGYWGQGTQVTVSS” as the sequence, how does the “polyreactivity (PSR sort gate)” value read?
A: The value was “high polyreactivity”.

Q: With “QVQLVESGGGLVQAGGSLRLSCAASGYTFRSNTMGWYRQAPGKERELVASINQSGGRTYYADSVKGRFTISRDNAKNTVYFQMNSLKPEDTAVYYCATRGYNYYAHNYWGQGTQVTVSS” as the sequence, how does the “polyreactivity (PSR sort gate)” value read?
A: The value was “high polyreactivity”.

Q: With “QVQLVESGGGLVQAGGSLRLSCAASGRILGDYAMGWYRQAPGKEREFVAAIDYNGGSTNYADSVMGRFTISRDNAKNTVYLQMNSLKPEDTAVYYCAKTDGFYRGYGYWGQGTQVTVSS” as the sequence, how does the “polyreactivity (PSR sort gate)” value read?
A: Its value is “low polyreactivity”.

Q: With “QVQLVESGGGLVQAGGSLRLSCAASGLIFKFYAMGGYRQAAGKERELVARISSSGGSTYYADSVKGRFTISRDNAKNTVYLQMNSLKPEDTAVYYCAAGAYYVERYARSSIFSYYYWGQGTQVTVSS” as the sequence, how does the “polyreactivity (PSR sort gate)” value read?
A: The value was “high polyreactivity”.

Q: With “QVQLVESGGGLVQAGGSLRLSCAASGRTFVPYAMGWYRQAPGKEREFLAAISWRGGSTYYADSVKGRFTISRDNAKNTVYLQMNSLKPEDTAVYYCAARYKRGFGVRFGYDYWGQGTQVTVSS” as the sequence, how does the “polyreactivity (PSR sort gate)” value read?
A: The value was “high polyreactivity”.

Q: With “QVQLVESGGGLVQAGGSLRLSCAASGSTFFPYAMGWYRQAPGKERELVAAIRWSGGRTYYADSVKGRFTISRDNAKNTVYLQMNSLKPEDTAVYYCAADKYLYYDYWGQGTQVTVSS” as the sequence, how does the “polyreactivity (PSR sort gate)” value read?
A: The value was “high polyreactivity”.

Q: Which “polyreactivity (PSR sort gate)” value does the source give for “QVQLVESRGGLVQAGGSLRLSCAASGSIFGFYAMGWYRQAPGKERELVAAISSDGGSTYYADSVKGRFTISRDNAKNTVYLQMNSLKPEDTAVYYCAAAHGSIYDSTYYEYYYWGQGTQVTVSS” here?
A: The value was “low polyreactivity”.

Q: With “QVQLVESGGCLVQAGGSLRLCCAASGSTFDSNAMGSYRQAPGIERELVAAISSDGSTTYADSVKGRFTISRDNAMNTVYLQMNSLKPEDTAVYYCEYYYWGQGTQVSVSS” as the sequence, how does the “polyreactivity (PSR sort gate)” value read?
A: Its value is “low polyreactivity”.

Q: For “QVQLVESGGGLVQAGGSLRLSCASSGLTFWPYVKGWYRQAPGKERELVAAIEDTGITYYADSVKGRFTISRDNAKNTVYLQMNSLTPDDTAVYYCATDWDYYFPWIYPSDAGPEDGYWGQGTQVTVSS”, which “polyreactivity (PSR sort gate)” value is on record?
A: Its value is “low polyreactivity”.

Q: Which “polyreactivity (PSR sort gate)” value does the source give for “QVQLVESGGGLVQAGGSLRLSCAASGSIFKYYAMGWYIQAPGKERELVAAITYSGGSTYYADSVKGRFTISRDNAKNTVYLQMNSLKPEDTAVYYCNKVYKSYYWGGYEWGQATQVTVSS” here?
A: Its value is “high polyreactivity”.

Q: With “QVQLVESGGGLVQAGGSLRLSCAASGTIYYNTMGWYRQAPGKERELVASISRTGSTKYADSVKGRFTISRDNAKNTVYLQMNSLKPEDTAVYYCAADYLAFREGAVWLYDYWGQGTQVTVSS” as the sequence, how does the “polyreactivity (PSR sort gate)” value read?
A: Its value is “high polyreactivity”.

Q: With “QVQLVESGGGLGQAGGSLRLSCAASGSIFYSYAMGWYRQAPGKDRELVADISSDGSTNYADSVKGRFTISRDNAKNTVFLQMNSLKPEDTAVYYCAKKPSSARYVTIGFDYWGQGTQVTVSS” as the sequence, how does the “polyreactivity (PSR sort gate)” value read?
A: Its value is “low polyreactivity”.

Q: Which “polyreactivity (PSR sort gate)” value does the source give for “QVQLVESGGGLVQAGGSLRLSCAASGSTFYNYVMGWYRQAPGKERELVAAISSSGGNTYYADSVKGRFTISRDNAKNTVYLQMNSLKPEDTAVYYCAARERHPSGGKYDYWGQGTQVTVSS” here?
A: Its value is “high polyreactivity”.

Q: Which “polyreactivity (PSR sort gate)” value does the source give for “QVQLVESGGGLVQAGGSLRLSCAASGSTFATYAMGWYRQAPGKERELVAAITSGGSTYYADSVKGRFTISRDNAKNTFYFQMNSLKPEDTAVYYCAARSAGWRRATYYKREEYWGQGTQVTVSS” here?
A: Its value is “high polyreactivity”.

Q: For “QVQLVESGGGIVQAGGSLRLSCAASGRIFSKNTMGRYRKAPGKERELVAAIRSRAGSTYYADSVKGRFTISRDNAKNTVYLQMNSLIPEDTAVYYCAVPWFRSVDFDYWGQGTQVTVSS”, which “polyreactivity (PSR sort gate)” value is on record?
A: The value was “low polyreactivity”.

Q: With “QVQLVESGGCLVQAGGSLRLSCAASGFIFAYNAMGWYRQAPGKERELDAAISWSGGSTYYADSVKGRFTISRDNAKNTVYLQMNSLKPEDTAVYYCNKYIRYPFKRYGYWGQGTQVTVSS” as the sequence, how does the “polyreactivity (PSR sort gate)” value read?
A: The value was “high polyreactivity”.

Q: Which “polyreactivity (PSR sort gate)” value does the source give for “QVQLVESGGGIVQAGGSLRLSCAASGSIFGFYALGWYRQAPGKERELVAAISNSAGSTFYADSVKGRFTISRDNAKNTVYLQMNSLKPEDTAVYYCAAEGEFSDWQHQYVVYWYDYWGQGTQVTVSS” here?
A: The value was “high polyreactivity”.
